One substance from patent US9926369B2, “Methods for treating hepatocellular cancer by administering an anti-Ang-2 antibody” (Regeneron Pharmaceuticals, Inc., priority 2009, dated 2018) can be followed below.

One experiment concerns the target T1, hAng-2FD-mFc Y-475-H (Homo sapiens, UniProt O15123, Y475H).
T1 construct: made in house
The experiment in a line: Ang-2FD-mFc point mutant binding experiment (SPR), Y-475-H. Particulars: Y-475-H mutant captured; antibody/peptibody at 100 nM; 25° C. From the text:
To further characterize binding between hAng2 and anti-hAng2 mAbs of the invention, seven variant hAng2-FD-mFc proteins were generated, each containing a single point mutation. Amino acids selected for mutation were based on the difference in sequence between hAng-2 and hAng-1 in the region that interacts with hTie-2 (FIG. 1). In particular, amino acids within the fibrinogen-like domain (FD) of Ang-2 which are believed to interact with Tie-2 based on crystal structure analysis, but which differ from the corresponding amino acid in Ang-1, were individually mutated to the corresponding hAng-1 residue. The results of this example indicate the amino acid residues of hAng-2 with which the Ang-2 preferential binding antibodies interact.
In this experiment, each of the seven hAng-2FD-mFc mutant proteins were captured (˜147-283 RU) on an anti-mouse-Fc surface created through direct chemical coupling to a BIACORE™ chip. Then each Ang-2 antibody (or peptibody, as the case may be) at 100 nM was injected over the captured mFc-tagged hAng-2FD protein surface at a flowrate of 50 μl/min for 180 sec, and the dissociation of variant hAng2-FD-mFc and antibody was monitored in real time for 20 min at 25° C.

Experiment [1] concerns the target T2, Human Ang-2FD-hFc binding to hTie-2-mFc (Homo sapiens, UniProt O15123).
T2 sequence (O15123 282-496): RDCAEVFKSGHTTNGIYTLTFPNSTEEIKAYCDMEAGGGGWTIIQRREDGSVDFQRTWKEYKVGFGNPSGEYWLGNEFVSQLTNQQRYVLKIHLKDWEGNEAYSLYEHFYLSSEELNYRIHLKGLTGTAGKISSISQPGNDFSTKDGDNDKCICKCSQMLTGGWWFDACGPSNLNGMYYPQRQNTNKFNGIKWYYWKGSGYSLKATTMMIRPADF
The experiment in a line: ELISA blocking of human Ang-2FD-hFc binding to hTie-2-mFc. The experiment is classed as biochemical. To be noted: 16.67 nM antibody; 2 nM Ang-2FD-hFc. The method, then:
Tie-2 is a natural receptor for Ang-2. Anti-Ang-2 antibodies were tested for their ability to block Ang-2 binding to human Tie-2 (hTie-2). hTie-2-mFc (a chimeric construct consisting of human Tie-2 conjugated to mouse IgG; SEQ ID NO:525) was coated onto 96-well plates at a concentration of 2 μg/ml and incubated overnight followed by washing four times in wash buffer (PBS with 0.05% Tween-20). The plate was then blocked with PBS (Irvine Scientific, Santa Ana, Calif.) containing 0.5% BSA (Sigma-Aldrich Corp., St. Louis, Mo.) for one hour at room temperature. In a separate plate, purified anti-Ang-2 antibodies, at a starting concentration of 50 nM, were serially diluted by a factor of three across the plate. Human, mouse or monkey Ang-2FD protein conjugated to human IgG (Ang-2FD-hFc) were added to final concentrations of 2 nM, 8 nM, or 2 nM respectively and incubated for one hour at room temperature. The antibody/Ang-2FD-Fc mixture was then added to the plate containing hTie-2-mFc and incubated for one hour at room temperature. Detection of Ang-2FD-hFc bound to hTie-2-mFc protein was determined with Horse-Radish Peroxidase (HRP) conjugated to a-human IgG antibody (Jackson Immuno Research Lab, West Grove, Pa.) and developed by standard colorimetric response using tetramethylbenzidine (TMB) substrate (BD Biosciences, San Jose, Calif.). Absorbance was read at OD450 for 0.1 sec.
Background: In an ELISA, binding on a coated surface is turned into a signal by an enzyme label.

T1 sequence (O15123 with tags, fused parts or gaps Y475H): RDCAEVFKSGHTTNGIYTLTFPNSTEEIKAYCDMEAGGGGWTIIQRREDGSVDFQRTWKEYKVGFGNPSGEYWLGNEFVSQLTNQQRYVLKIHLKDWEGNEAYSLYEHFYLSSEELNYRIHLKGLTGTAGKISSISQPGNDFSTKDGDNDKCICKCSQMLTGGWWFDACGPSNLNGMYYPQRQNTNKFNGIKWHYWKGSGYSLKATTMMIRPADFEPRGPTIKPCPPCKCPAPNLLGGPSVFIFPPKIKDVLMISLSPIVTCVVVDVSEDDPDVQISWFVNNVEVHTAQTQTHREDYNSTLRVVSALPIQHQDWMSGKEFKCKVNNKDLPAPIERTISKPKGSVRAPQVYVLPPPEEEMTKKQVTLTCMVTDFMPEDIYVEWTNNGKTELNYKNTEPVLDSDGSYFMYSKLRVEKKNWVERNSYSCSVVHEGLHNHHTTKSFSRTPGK

As for “H1H685P: human anti-Ang-2 antibody, HCVR/LCVR SEQ ID NOs 18/20; also referred to as mAb1 [Antibody H1H685P]”, in the experiment with hAng-2FD-mFc Y-475-H, binding was put at a Kd of 196 pM and the RU is listed as 181.53 RU. Moreover, in experiment [1], the “Percent Blocking of Ang-2FD Binding to Tie-2, Human Ang-2FD-hFc” value is 93.8%.

Broadly, the Kd is the constant that tells how readily two partners part at equilibrium.
